B1: MYT1218 (antibody, V domains shown)
VH: QVQLQQPGAEVVKPGASVKMSCKASGYTFTHYYIHWIKQTPGQGLEWVGVIYPGNDDISYNQKFQGKATLTADKSSTTAYMQLSSLTSEDSAVYYCAREVRLRYFDVWGQGTTVTVSS
VL: EIVLTQSPGSLAVSPGERVTMSCKSSQSVFFSSSQKNYLAWYQQIPGQSPRLLIYWASTRESGVPDRFTGSGSGTDFTLTISSVQPEDLAIYYCHQYLSSRTFGQGTKLEIK
notes: IgG; IMGN779 VH variant #6 (S31H)
B2: MYT1227 (antibody, V domains shown)
VH: QVQLQQPGAEVVKPGASVKMSCKASGYTFTSYYIHWIKQTPGQGLEWVGVIYPHNDDISYNQKFQGKATLTADKSSTTAYMQLSSLTSEDSAVYYCAREVRLRYFDVWGQGTTVTVSS
VL: EIVLTQSPGSLAVSPGERVTMSCKSSQSVFFSSSQKNYLAWYQQIPGQSPRLLIYWASTRESGVPDRFTGSGSGTDFTLTISSVQPEDLAIYYCHQYLSSRTFGQGTKLEIK
notes: IgG; IMGN779 VH variant #15 (G54H)
B3: MYT1235 (antibody, V domains shown)
VH: QVQLQQPGAEVVKPGASVKMSCKASGYTFTSYYIHWIKQTPGQGLEWVGVIYPGNDDISYNHKFQGKATLTADKSSTTAYMQLSSLTSEDSAVYYCAREVRLRYFDVWGQGTTVTVSS
VL: EIVLTQSPGSLAVSPGERVTMSCKSSQSVFFSSSQKNYLAWYQQIPGQSPRLLIYWASTRESGVPDRFTGSGSGTDFTLTISSVQPEDLAIYYCHQYLSSRTFGQGTKLEIK
notes: IgG; IMGN779 VH variant #23 (Q62H)
B4: MYT1223 (antibody, V domains shown)
VH: QVQLQQPGAEVVKPGASVKMSCKASGYTFTSYYIHWIKQTPGQGLEWVGHIYPGNDDISYNQKFQGKATLTADKSSTTAYMQLSSLTSEDSAVYYCAREVRLRYFDVWGQGTTVTVSS
VL: EIVLTQSPGSLAVSPGERVTMSCKSSQSVFFSSSQKNYLAWYQQIPGQSPRLLIYWASTRESGVPDRFTGSGSGTDFTLTISSVQPEDLAIYYCHQYLSSRTFGQGTKLEIK
notes: IgG; IMGN779 VH variant #11 (V50H)
B5: MYT1230 (antibody, V domains shown)
VH: QVQLQQPGAEVVKPGASVKMSCKASGYTFTSYYIHWIKQTPGQGLEWVGVIYPGNDHISYNQKFQGKATLTADKSSTTAYMQLSSLTSEDSAVYYCAREVRLRYFDVWGQGTTVTVSS
VL: EIVLTQSPGSLAVSPGERVTMSCKSSQSVFFSSSQKNYLAWYQQIPGQSPRLLIYWASTRESGVPDRFTGSGSGTDFTLTISSVQPEDLAIYYCHQYLSSRTFGQGTKLEIK
notes: IgG; IMGN779 VH variant #18 (D57H)
B6: MYT1233 (antibody, V domains shown)
VH: QVQLQQPGAEVVKPGASVKMSCKASGYTFTSYYIHWIKQTPGQGLEWVGVIYPGNDDISHNQKFQGKATLTADKSSTTAYMQLSSLTSEDSAVYYCAREVRLRYFDVWGQGTTVTVSS
VL: EIVLTQSPGSLAVSPGERVTMSCKSSQSVFFSSSQKNYLAWYQQIPGQSPRLLIYWASTRESGVPDRFTGSGSGTDFTLTISSVQPEDLAIYYCHQYLSSRTFGQGTKLEIK
notes: IgG; IMGN779 VH variant #21 (Y60H)
B7: MYT1219 (antibody, V domains shown)
VH: QVQLQQPGAEVVKPGASVKMSCKASGYTFTSHYIHWIKQTPGQGLEWVGVIYPGNDDISYNQKFQGKATLTADKSSTTAYMQLSSLTSEDSAVYYCAREVRLRYFDVWGQGTTVTVSS
VL: EIVLTQSPGSLAVSPGERVTMSCKSSQSVFFSSSQKNYLAWYQQIPGQSPRLLIYWASTRESGVPDRFTGSGSGTDFTLTISSVQPEDLAIYYCHQYLSSRTFGQGTKLEIK
notes: IgG; IMGN779 VH variant #7 (Y32H)
B8: MYT1238 (antibody, V domains shown)
VH: QVQLQQPGAEVVKPGASVKMSCKASGYTFTSYYIHWIKQTPGQGLEWVGVIYPGNDDISYNQKFHGKATLTADKSSTTAYMQLSSLTSEDSAVYYCAREVRLRYFDVWGQGTTVTVSS
VL: EIVLTQSPGSLAVSPGERVTMSCKSSQSVFFSSSQKNYLAWYQQIPGQSPRLLIYWASTRESGVPDRFTGSGSGTDFTLTISSVQPEDLAIYYCHQYLSSRTFGQGTKLEIK
notes: IgG; IMGN779 VH variant #26 (Q65H)
B9: MYT1231 (antibody, V domains shown)
VH: QVQLQQPGAEVVKPGASVKMSCKASGYTFTSYYIHWIKQTPGQGLEWVGVIYPGNDDHSYNQKFQGKATLTADKSSTTAYMQLSSLTSEDSAVYYCAREVRLRYFDVWGQGTTVTVSS
VL: EIVLTQSPGSLAVSPGERVTMSCKSSQSVFFSSSQKNYLAWYQQIPGQSPRLLIYWASTRESGVPDRFTGSGSGTDFTLTISSVQPEDLAIYYCHQYLSSRTFGQGTKLEIK
notes: IgG; IMGN779 VH variant #19 (I58H)
B10: MYT1221 (antibody, V domains shown)
VH: QVQLQQPGAEVVKPGASVKMSCKASGYTFTSYYHHWIKQTPGQGLEWVGVIYPGNDDISYNQKFQGKATLTADKSSTTAYMQLSSLTSEDSAVYYCAREVRLRYFDVWGQGTTVTVSS
VL: EIVLTQSPGSLAVSPGERVTMSCKSSQSVFFSSSQKNYLAWYQQIPGQSPRLLIYWASTRESGVPDRFTGSGSGTDFTLTISSVQPEDLAIYYCHQYLSSRTFGQGTKLEIK
notes: IgG; IMGN779 VH variant #9 (I34H)
B11: MYT1229 (antibody, V domains shown)
VH: QVQLQQPGAEVVKPGASVKMSCKASGYTFTSYYIHWIKQTPGQGLEWVGVIYPGNHDISYNQKFQGKATLTADKSSTTAYMQLSSLTSEDSAVYYCAREVRLRYFDVWGQGTTVTVSS
VL: EIVLTQSPGSLAVSPGERVTMSCKSSQSVFFSSSQKNYLAWYQQIPGQSPRLLIYWASTRESGVPDRFTGSGSGTDFTLTISSVQPEDLAIYYCHQYLSSRTFGQGTKLEIK
notes: IgG; IMGN779 VH variant #17 (D56H)
B12: MYT1237 (antibody, V domains shown)
VH: QVQLQQPGAEVVKPGASVKMSCKASGYTFTSYYIHWIKQTPGQGLEWVGVIYPGNDDISYNQKHQGKATLTADKSSTTAYMQLSSLTSEDSAVYYCAREVRLRYFDVWGQGTTVTVSS
VL: EIVLTQSPGSLAVSPGERVTMSCKSSQSVFFSSSQKNYLAWYQQIPGQSPRLLIYWASTRESGVPDRFTGSGSGTDFTLTISSVQPEDLAIYYCHQYLSSRTFGQGTKLEIK
notes: IgG; IMGN779 VH variant #25 (F64H)
B13: MYT1232 (antibody, V domains shown)
VH: QVQLQQPGAEVVKPGASVKMSCKASGYTFTSYYIHWIKQTPGQGLEWVGVIYPGNDDIHYNQKFQGKATLTADKSSTTAYMQLSSLTSEDSAVYYCAREVRLRYFDVWGQGTTVTVSS
VL: EIVLTQSPGSLAVSPGERVTMSCKSSQSVFFSSSQKNYLAWYQQIPGQSPRLLIYWASTRESGVPDRFTGSGSGTDFTLTISSVQPEDLAIYYCHQYLSSRTFGQGTKLEIK
notes: IgG; IMGN779 VH variant #20 (S59H)
B14: MYT1228 (antibody, V domains shown)
VH: QVQLQQPGAEVVKPGASVKMSCKASGYTFTSYYIHWIKQTPGQGLEWVGVIYPGHDDISYNQKFQGKATLTADKSSTTAYMQLSSLTSEDSAVYYCAREVRLRYFDVWGQGTTVTVSS
VL: EIVLTQSPGSLAVSPGERVTMSCKSSQSVFFSSSQKNYLAWYQQIPGQSPRLLIYWASTRESGVPDRFTGSGSGTDFTLTISSVQPEDLAIYYCHQYLSSRTFGQGTKLEIK
notes: IgG; IMGN779 VH variant #16 (N55H)
B15: MYT1224 (antibody, V domains shown)
VH: QVQLQQPGAEVVKPGASVKMSCKASGYTFTSYYIHWIKQTPGQGLEWVGVHYPGNDDISYNQKFQGKATLTADKSSTTAYMQLSSLTSEDSAVYYCAREVRLRYFDVWGQGTTVTVSS
VL: EIVLTQSPGSLAVSPGERVTMSCKSSQSVFFSSSQKNYLAWYQQIPGQSPRLLIYWASTRESGVPDRFTGSGSGTDFTLTISSVQPEDLAIYYCHQYLSSRTFGQGTKLEIK
notes: IgG; IMGN779 VH variant #12 (I51H)
B16: MYT1236 (antibody, V domains shown)
VH: QVQLQQPGAEVVKPGASVKMSCKASGYTFTSYYIHWIKQTPGQGLEWVGVIYPGNDDISYNQHFQGKATLTADKSSTTAYMQLSSLTSEDSAVYYCAREVRLRYFDVWGQGTTVTVSS
VL: EIVLTQSPGSLAVSPGERVTMSCKSSQSVFFSSSQKNYLAWYQQIPGQSPRLLIYWASTRESGVPDRFTGSGSGTDFTLTISSVQPEDLAIYYCHQYLSSRTFGQGTKLEIK
notes: IgG; IMGN779 VH variant #24 (K63H)
B17: MYT1225 (antibody, V domains shown)
VH: QVQLQQPGAEVVKPGASVKMSCKASGYTFTSYYIHWIKQTPGQGLEWVGVIHPGNDDISYNQKFQGKATLTADKSSTTAYMQLSSLTSEDSAVYYCAREVRLRYFDVWGQGTTVTVSS
VL: EIVLTQSPGSLAVSPGERVTMSCKSSQSVFFSSSQKNYLAWYQQIPGQSPRLLIYWASTRESGVPDRFTGSGSGTDFTLTISSVQPEDLAIYYCHQYLSSRTFGQGTKLEIK
notes: IgG; IMGN779 VH variant #13 (Y52H)
B18: MYT1220 (antibody, V domains shown)
VH: QVQLQQPGAEVVKPGASVKMSCKASGYTFTSYHIHWIKQTPGQGLEWVGVIYPGNDDISYNQKFQGKATLTADKSSTTAYMQLSSLTSEDSAVYYCAREVRLRYFDVWGQGTTVTVSS
VL: EIVLTQSPGSLAVSPGERVTMSCKSSQSVFFSSSQKNYLAWYQQIPGQSPRLLIYWASTRESGVPDRFTGSGSGTDFTLTISSVQPEDLAIYYCHQYLSSRTFGQGTKLEIK
notes: IgG; IMGN779 VH variant #8 (Y33H)
B19: MYT1226 (antibody, V domains shown)
VH: QVQLQQPGAEVVKPGASVKMSCKASGYTFTSYYIHWIKQTPGQGLEWVGVIYHGNDDISYNQKFQGKATLTADKSSTTAYMQLSSLTSEDSAVYYCAREVRLRYFDVWGQGTTVTVSS
VL: EIVLTQSPGSLAVSPGERVTMSCKSSQSVFFSSSQKNYLAWYQQIPGQSPRLLIYWASTRESGVPDRFTGSGSGTDFTLTISSVQPEDLAIYYCHQYLSSRTFGQGTKLEIK
notes: IgG; IMGN779 VH variant #14 (P53H)
B20: MYT1234 (antibody, V domains shown)
VH: QVQLQQPGAEVVKPGASVKMSCKASGYTFTSYYIHWIKQTPGQGLEWVGVIYPGNDDISYHQKFQGKATLTADKSSTTAYMQLSSLTSEDSAVYYCAREVRLRYFDVWGQGTTVTVSS
VL: EIVLTQSPGSLAVSPGERVTMSCKSSQSVFFSSSQKNYLAWYQQIPGQSPRLLIYWASTRESGVPDRFTGSGSGTDFTLTISSVQPEDLAIYYCHQYLSSRTFGQGTKLEIK
notes: IgG; IMGN779 VH variant #22 (N61H)
B21: MYT1222 (antibody, V domains shown)
VH: QVQLQQPGAEVVKPGASVKMSCKASGYTFTSYYIAWIKQTPGQGLEWVGVIYPGNDDISYNQKFQGKATLTADKSSTTAYMQLSSLTSEDSAVYYCAREVRLRYFDVWGQGTTVTVSS
VL: EIVLTQSPGSLAVSPGERVTMSCKSSQSVFFSSSQKNYLAWYQQIPGQSPRLLIYWASTRESGVPDRFTGSGSGTDFTLTISSVQPEDLAIYYCHQYLSSRTFGQGTKLEIK
notes: IgG; IMGN779 VH variant #10 (H35A)

molecular target: CD33 (Sino Biological, Cat #12238-H08H) (UniProt P20138 18-259); assay: BLI, IgG captured on anti-human Fc sensor, 50 nM CD33, pH 7.4 vs pH 5.4
Sequence (P20138 18-259 limits assumed): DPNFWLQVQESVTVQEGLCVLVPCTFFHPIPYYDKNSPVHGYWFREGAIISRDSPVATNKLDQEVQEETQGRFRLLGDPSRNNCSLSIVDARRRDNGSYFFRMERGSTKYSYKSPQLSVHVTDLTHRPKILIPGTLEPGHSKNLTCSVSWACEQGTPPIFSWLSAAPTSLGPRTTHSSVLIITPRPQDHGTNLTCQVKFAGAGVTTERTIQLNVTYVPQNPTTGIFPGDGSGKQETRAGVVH

Binding result, binds:
B1, B2, B3, B4, B5, B6, B7, B8, B9, B10, B11, B12, B13, B14, B15, B16, B17, B18, B19, B20, B21

Reference: patent US20220324969A1 (MYTHIC THERAPEUTICS, published 2022)
